Results taken from PMC4895914 (2014).
Blank lines part the entries; values can stand above or below the binder they belong to. Square brackets hold non-standard residues; d marks the D form. Ends that are not written are not given here. * marks the point of attachment. His(π-(CH2)8Ph,τ-CH2CH2CH(OH)CH2OH) = His N(pi)-(CH2)8Ph and N(tau)-CH2CH2CH(OH)CH2OH; FITC = O=C1OC2(c3ccc(O)cc3Oc3cc(O)ccc32)c2ccc(NC(=S)*)cc21; His(π-(CH2)8Ph) = N[C@@H](Cc1cncn1CCCCCCCCc1ccccc1)C(=O)O; pT = C[C@@H](OP(=O)(O)O)[C@H](N)C(=O)O; PEG = not defined here

Experiments:
Assay in all cases: fluorescence polarization
3m* = target: T1, 3m* (not fully specified; reading uncertain)
T1 chain: {FITC-PEG}-PL[His(π-(CH2)8Ph,τ-CH2CH2CH(OH)CH2OH)]S[pT]

3c* = target: T2, 3c* (not fully specified (residue 3); reading uncertain; also: His N(tau)-hydroxyalkyl, not given here)
T2 chain: {FITC-PEG}-PLHS[pT]

2a* = target: T3, 2a* (not fully specified; reading uncertain)
T3 chain: {FITC-PEG}-PL[His(π-(CH2)8Ph)]S[pT]

Kd (3m*): 62 nM
Kd (3c*): 240 nM
Kd (2a*): 306 nM
B1: Plk3 PBD PBD (protein)
chain: TPPNPARSLFAKVTKSLFGRKKKSKNHAQERDEVSGLVSGLMRTSVGHQDARPEAPAASGPAPVSLVETAPEDSSPRGTLASSGDGFEEGLTVATVVESALCALRNCIAFMPPAEQNPAPLAQPEPLVWVSKWVDYSNKFGFGYQLSSRRVAVLFNDGTHMALSANRKTVHYNPTSTKHFSFSVGAVPRALQPQLGILRYFASYMEQHLMKGGDLPSVEEVEVPAPPLLLQWVKTDQALLMLFSDGTVQVNFYGDHTKLILSGWEPLLVTFVARNRSACTYLASHLRQLGCSPDLRQRLRYALRLLRDRSPA

Kd (3m*): 24 nM
Kd (3c*): 43 nM
Kd (2a*): 400 nM
B2: Plk2 PBD PBD (protein)
chain: HLSSPAKNFFKKAAAALFGGKKDKARYIDTHNRVSKEDEDIYKLRHDLKKTSITQQPSKHRTDEELQPPTTTVARSGTPAVENKQQIGDAIRMIVRGTLGSCSSSSECLEDSTMGSVADTVARVLRGCLENMPEADCIPKEQLSTSFQWVTKWVDYSNKYGFGYQLSDHTVGVLFNNGAHMSLLPDKKTVHYYAELGQCSVFPATDAPEQFISQVTVLKYFSHYMEENLMDGGDLPSVTDIRRPRLYLLQWLKSDKALMMLFNDGTFQVNFYHDHTKIIICSQNEEYLLTYINEDRISTTFRLTTLLMSGCSSELKNRMEYALNMLLQRCN
